Holding throughout (type): biochemical, E. coli
The target in one data set is H198P/K243D DegS (Escherichia coli, UniProt P0AEE3, H198P/K243D). Conditions: saturating OMP peptide, 23 ± 1 °C; average of two or more determinations.
The next data set concerns the target wild-type DegS (Escherichia coli, UniProt P0AEE3). To be noted: OMP peptide present, 23 ± 1 °C; average of two or more determinations.
For data set [1], the system named is RseA. Briefly: Steady-state RseA cleavage.
The test system of data set [2] is RseA. The experiment in a line: Cleavage of sub-KM RseA by DegS variants without OMP peptide. To be noted: no OMP peptide.

wild-type DegS, sequence (P0AEE3 27-355): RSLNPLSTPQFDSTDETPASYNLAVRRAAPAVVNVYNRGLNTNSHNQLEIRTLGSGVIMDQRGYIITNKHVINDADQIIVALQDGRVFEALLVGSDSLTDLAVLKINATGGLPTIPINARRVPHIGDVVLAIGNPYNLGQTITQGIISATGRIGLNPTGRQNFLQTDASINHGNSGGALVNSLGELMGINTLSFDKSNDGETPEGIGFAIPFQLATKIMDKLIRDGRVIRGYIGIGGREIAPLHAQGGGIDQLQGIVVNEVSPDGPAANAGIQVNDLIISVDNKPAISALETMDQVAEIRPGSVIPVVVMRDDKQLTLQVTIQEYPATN
H198P/K243D DegS, sequence (P0AEE3 27-355 H198P/K243D limits assumed): as the sequence (P0AEE3 27-355) above, with H172P, K217D counted along it

Turning to DNRDGNVYYF, the Vmax at H198P/K243D DegS came to 1.8 ± 0.2 s^-1 enz^-1; on wild-type DegS, 1.1 ± 0.2 s^-1 enz^-1.

B1: H198P: DegS variant with His^198 substituted by proline (protein)
chain: RSLNPLSTPQFDSTDETPASYNLAVRRAAPAVVNVYNRGLNTNSHNQLEIRTLGSGVIMDQRGYIITNKHVINDADQIIVALQDGRVFEALLVGSDSLTDLAVLKINATGGLPTIPINARRVPHIGDVVLAIGNPYNLGQTITQGIISATGRIGLNPTGRQNFLQTDASINPGNSGGALVNSLGELMGINTLSFDKSNDGETPEGIGFAIPFQLATKIMDKLIRDGRVIRGYIGIGGREIAPLHAQGGGIDQLQGIVVNEVSPDGPAANAGIQVNDLIISVDNKPAISALETMDQVAEIRPGSVIPVVVMRDDKQLTLQVTIQEYPATN
modifications: left off: His6, N-terminal, state not stated
Consider B1, for which, in the data set on RseA [1] (KM of RseA, OMP peptide: None, 23 ± 1 °C, average of two or more determinations), the Km – broadly, the substrate concentration at which the rate is half of its maximum – came out at 560 ± 40 µM. For the same molecule, the Vmax in the data set with RseA [1] (OMP peptide: None, 23 ± 1 °C, average of two or more determinations) is 1.4 ± 0.3 s^-1 enz^-1. The “activity with high RseA alone relative to best OMP-peptide activation” value in the data set with RseA [1] (high concentrations of RseA, no OMP peptide) was “about 60%”. The “RseA cleavage rate relative to wild-type DegS” value with RseA [2] is listed as 150 fold.

(Values after paper PMC2764547 (Structure (London, England : 1993), 2009).)
